Tests used:
[1] = target: tubulin purified from Spodoptera Frugiperda Sf9 cells (fully tyrosinated; used as purified tubulin or polymerised microtubules)
[2] = target: human tubulin purified from HEK293 cells

B1: recombinant SVBP-VASH2 complex (protein)
chain 1: not shown
chain 2: MDPPARKEKTKVKESVSRVEKAKQKSAQQELKQRQRAEIYALNRVMTELEQQQFDEFCKQMQPPGE
Which “detyrosination assay (western blot, relative optical density detyrosination/tubulin)” value [1] does the source give for B1 here?
Its value is “SVBP-VASH2 complex strongly induced detyrosination in the assay”.

And the “detyrosination assay (western blot, relative optical density detyrosination/tubulin)” value [2]?
Its value is “the fold induction of the tubulin detyrosination resulting from SVBP-VASH2 complex was significantly lower with human tubulin purified from HEK293 cells in comparison to the one obtained using Sf9 cells extracted tubulin”.
